From article PMC5660093, “Structure of SgK223 pseudokinase reveals novel mechanisms of homotypic and heterotypic association” (Nature Communications, 2017)

B7: SgK269-αN1-PsK-Cter (WT) (domain or fragment, human, UniProt Q9H792 1267-1746, looked up)
chain: GIQKPQRQALYRGLENREEVVGKIRSLHTDALKKLAVKCEDLFMAGQKDQLRFGVDSWSDFRLTSDKPCCEAGDAVYYTASYAKDPLNNYAVKICKSKAKESQQYYHSLAVRQSLAVHFNIQQDCGHFLAEVPNRLLPWEDPDDPEKDEDDMEETEEDAKGETDGKNPKPCSEAASSQKENQGVMSKKQRSHVVVITREVPCLTVADFVRDSLAQHGKSPDLYERQVCLLLLQLCSGLEHLKPYHVTHCDLRLENLLLVHYQPGGTAQGFGPAEPSPTSSYPTRLIVSNFSQAKQKSHLVDPEILRDQSRLAPEIITATQYKKCDEFQTGILIYEMLHLPNPFDENPELKEREYTRADLPRIPFRSPYSRGLQQLASCLLNPNPSERILISDAKGILQCLLWGPREDLFQTFTACPSLVQRNTLLQNWLDIKRTLLMIKFAEKSLDREGGISLEDWLCAQYLAFATTDSLSCIVKILQHR
notes: SgK269 (PEAK1), human, residues 1267-1746: αN1 helix, pseudokinase domain and C-terminal helices; also called SgK269-WT (αN1-PsK-Cter); SgK269-WT; source: E. coli C41(DE3), purified (Ni-NTA, SEC)
B8: His tag cleaved SgK269-αN1-PsK-Cter F1609A (domain or fragment, human, UniProt Q9H792 1267-1746, looked up)
chain: GIQKPQRQALYRGLENREEVVGKIRSLHTDALKKLAVKCEDLFMAGQKDQLRFGVDSWSDFRLTSDKPCCEAGDAVYYTASYAKDPLNNYAVKICKSKAKESQQYYHSLAVRQSLAVHFNIQQDCGHFLAEVPNRLLPWEDPDDPEKDEDDMEETEEDAKGETDGKNPKPCSEAASSQKENQGVMSKKQRSHVVVITREVPCLTVADFVRDSLAQHGKSPDLYERQVCLLLLQLCSGLEHLKPYHVTHCDLRLENLLLVHYQPGGTAQGFGPAEPSPTSSYPTRLIVSNFSQAKQKSHLVDPEILRDQSRLAPEIITATQYKKCDEFQTGILIYEMLHLPNPADENPELKEREYTRADLPRIPFRSPYSRGLQQLASCLLNPNPSERILISDAKGILQCLLWGPREDLFQTFTACPSLVQRNTLLQNWLDIKRTLLMIKFAEKSLDREGGISLEDWLCAQYLAFATTDSLSCIVKILQHR
notes: SgK269 (PEAK1), human, residues 1267-1746; also called SgK269-αN1-PsK-Cter Phe1609Ala; source: E. coli C41(DE3), purified (Ni-NTA, SEC); not shown: His tag, N-terminal, cleaved

Assays:
[1] = molecular target: the molecule itself; assay: AUC; sedimentation velocity, WT and mutants each at 3.0 μM; 20 mM Tris-HCl, 150 mM NaCl, pH 8.0, 20 °C
[2] = molecular target: the molecule itself; assay: AUC; sedimentation velocity at 0.6, 1.2 and 2.3 μM; 20 mM Tris-HCl, 150 mM NaCl, pH 8.0, 20 °C; dimer to monomers
SgK269-αN1-PsK-Cter (WT) = molecular target: B7; assay: SEC; SgK223 and SgK269 proteins mixed equimolar at 29.06 μM, 15 min on ice; Superdex 200 Increase 10/300 GL; 20 mM Tris pH 8.5, 200 mM NaCl, 5% glycerol, 1 mM TCEP; preformed homodimers mixed; conditions: both partners purified
[3] = molecular target: the molecule itself; assay: AUC; sedimentation velocity, WT and oligomer-interface mutants each at 20 μM; 20 mM Tris-HCl, 150 mM NaCl, pH 8.0, 20 °C
[4] = molecular target: B8; assay: anion exchange chromatography (Mono Q); the two αG mutants mixed equimolar at 20 μM, overnight on ice, diluted five times, Mono Q 5/50 GL, linear NaCl gradient, 20 mM Tris pH 8.5; peaks analysed by SDS-PAGE; conditions: both partners purified
[5] = molecular target: the molecule itself; assay: SAXS; inline gel filtration (Superdex 200 5/150); 20 mM Tris pH 8.5, 200 mM NaCl, 1 mM TCEP, 5% glycerol, 12 °C; WT injected at 2.2 mg/ml, I1243A at 3.5 mg/ml
[6] = molecular target: the molecule itself; assay: SEC; peaks from the Mono Q column on Superdex 200 Increase 10/300 GL; 20 mM Tris pH 8.5, 200 mM NaCl, 1 mM TCEP

B1: SgK223-αN1-PsK-Cter F974A (domain or fragment, human, UniProt Q86YV5 932-1406, looked up)
chain: GSTQLQLHGLLSNISSKEGTYAKLGGLYTQSLARLVAKCEDLAMGGQKKELHFNENNWSLFKLTCNKPCCDSGDAIYYCATCSEDPGSTYAVKICKAPEPKTVSYCSPSVPVHFNIQQDCGHFVASVPSSMLSSPDAPKDPVPALPTHPPAQEQDCVVVITREVPHQTASDFVRDSAASHQAEPEAYERRVCFLLLQLCNGLEHLKEHGIIHRDLCLENLLLVHCTLQAGPGPAPAPAPAPAPAAAAPPCSSAAPPAGGTLSPAAGPASPEGPREKQLPRLIISNFLKAKQKPGGTPNLQQKKSQARLAPEIVSASQYRKFDEFQTGILIYELLHQPNPFEVRAQLRERDYRQEDLPPLPALSLYSPGLQQLAHLLLEADPIKRIRIGEAKRVLQCLLWGPRRELVQQPGTSEEALCGTLHNWIDMKRALMMMKFAEKAVDRRRGVELEDWLCCQYLASAEPGALLQSLKLLQLL
notes: SgK223 (Pragmin), human, residues 932-1406; source: E. coli C41(DE3), purified (Ni-NTA, SEC)
binding result [1]: binds

B2: SgK223-αN1-PsK-Cter W1354A (domain or fragment, human, UniProt Q86YV5 932-1406, looked up)
chain: GSTQLQLHGLLSNISSKEGTYAKLGGLYTQSLARLVAKCEDLFMGGQKKELHFNENNWSLFKLTCNKPCCDSGDAIYYCATCSEDPGSTYAVKICKAPEPKTVSYCSPSVPVHFNIQQDCGHFVASVPSSMLSSPDAPKDPVPALPTHPPAQEQDCVVVITREVPHQTASDFVRDSAASHQAEPEAYERRVCFLLLQLCNGLEHLKEHGIIHRDLCLENLLLVHCTLQAGPGPAPAPAPAPAPAAAAPPCSSAAPPAGGTLSPAAGPASPEGPREKQLPRLIISNFLKAKQKPGGTPNLQQKKSQARLAPEIVSASQYRKFDEFQTGILIYELLHQPNPFEVRAQLRERDYRQEDLPPLPALSLYSPGLQQLAHLLLEADPIKRIRIGEAKRVLQCLLWGPRRELVQQPGTSEEALCGTLHNAIDMKRALMMMKFAEKAVDRRRGVELEDWLCCQYLASAEPGALLQSLKLLQLL
notes: SgK223 (Pragmin), human, residues 932-1406; also called alanine mutation of Trp1354; source: E. coli C41(DE3), purified (Ni-NTA, SEC)
binding result [1]: binds

B3: SgK223-αN1-PsK-Cter (WT) (domain or fragment, human, UniProt Q86YV5 932-1406, looked up)
chain: GSTQLQLHGLLSNISSKEGTYAKLGGLYTQSLARLVAKCEDLFMGGQKKELHFNENNWSLFKLTCNKPCCDSGDAIYYCATCSEDPGSTYAVKICKAPEPKTVSYCSPSVPVHFNIQQDCGHFVASVPSSMLSSPDAPKDPVPALPTHPPAQEQDCVVVITREVPHQTASDFVRDSAASHQAEPEAYERRVCFLLLQLCNGLEHLKEHGIIHRDLCLENLLLVHCTLQAGPGPAPAPAPAPAPAAAAPPCSSAAPPAGGTLSPAAGPASPEGPREKQLPRLIISNFLKAKQKPGGTPNLQQKKSQARLAPEIVSASQYRKFDEFQTGILIYELLHQPNPFEVRAQLRERDYRQEDLPPLPALSLYSPGLQQLAHLLLEADPIKRIRIGEAKRVLQCLLWGPRRELVQQPGTSEEALCGTLHNWIDMKRALMMMKFAEKAVDRRRGVELEDWLCCQYLASAEPGALLQSLKLLQLL
notes: SgK223 (Pragmin), human, residues 932-1406: αN1 helix, pseudokinase domain and C-terminal helices; Modified pCOLD IV vector with an N-terminal His TEV cleavage tag; Monomer MW printed as 54 kDa; A seleno-methionine form was also crystallised; also called WT-SgK223-αN1-PsK-Cter; SgK223-WT (αN1-PsK-Cter); source: E. coli C41(DE3), purified (Ni-NTA, SEC)
stoichiometry N [2]: 2
binding result (SgK269-αN1-PsK-Cter (WT)): binds

B4: SgK223-αN1-PsK-Cter F1271A (domain or fragment, human, UniProt Q86YV5 932-1406, looked up)
chain: GSTQLQLHGLLSNISSKEGTYAKLGGLYTQSLARLVAKCEDLFMGGQKKELHFNENNWSLFKLTCNKPCCDSGDAIYYCATCSEDPGSTYAVKICKAPEPKTVSYCSPSVPVHFNIQQDCGHFVASVPSSMLSSPDAPKDPVPALPTHPPAQEQDCVVVITREVPHQTASDFVRDSAASHQAEPEAYERRVCFLLLQLCNGLEHLKEHGIIHRDLCLENLLLVHCTLQAGPGPAPAPAPAPAPAAAAPPCSSAAPPAGGTLSPAAGPASPEGPREKQLPRLIISNFLKAKQKPGGTPNLQQKKSQARLAPEIVSASQYRKFDEFQTGILIYELLHQPNPAEVRAQLRERDYRQEDLPPLPALSLYSPGLQQLAHLLLEADPIKRIRIGEAKRVLQCLLWGPRRELVQQPGTSEEALCGTLHNWIDMKRALMMMKFAEKAVDRRRGVELEDWLCCQYLASAEPGALLQSLKLLQLL
notes: SgK223 (Pragmin), human, residues 932-1406; also called SgK223-αN1-PsK-Cter Phe1271Ala; His-SgK223-αN1-PsK-Cter; source: E. coli C41(DE3), purified (Ni-NTA, SEC); not shown: His tag, N-terminal, kept
stoichiometry N [3]: 2
binding result [4]: binds

B5: SgK223-αN1-PsK-Cter Y1282A (domain or fragment, human, UniProt Q86YV5 932-1406, looked up)
chain: GSTQLQLHGLLSNISSKEGTYAKLGGLYTQSLARLVAKCEDLFMGGQKKELHFNENNWSLFKLTCNKPCCDSGDAIYYCATCSEDPGSTYAVKICKAPEPKTVSYCSPSVPVHFNIQQDCGHFVASVPSSMLSSPDAPKDPVPALPTHPPAQEQDCVVVITREVPHQTASDFVRDSAASHQAEPEAYERRVCFLLLQLCNGLEHLKEHGIIHRDLCLENLLLVHCTLQAGPGPAPAPAPAPAPAAAAPPCSSAAPPAGGTLSPAAGPASPEGPREKQLPRLIISNFLKAKQKPGGTPNLQQKKSQARLAPEIVSASQYRKFDEFQTGILIYELLHQPNPFEVRAQLRERDARQEDLPPLPALSLYSPGLQQLAHLLLEADPIKRIRIGEAKRVLQCLLWGPRRELVQQPGTSEEALCGTLHNWIDMKRALMMMKFAEKAVDRRRGVELEDWLCCQYLASAEPGALLQSLKLLQLL
notes: as for B1
stoichiometry N [3]: 2

B6: SgK223 αN1-PsK-Cter I1243A (domain or fragment, human, UniProt Q86YV5 932-1406, looked up)
chain: GSTQLQLHGLLSNISSKEGTYAKLGGLYTQSLARLVAKCEDLFMGGQKKELHFNENNWSLFKLTCNKPCCDSGDAIYYCATCSEDPGSTYAVKICKAPEPKTVSYCSPSVPVHFNIQQDCGHFVASVPSSMLSSPDAPKDPVPALPTHPPAQEQDCVVVITREVPHQTASDFVRDSAASHQAEPEAYERRVCFLLLQLCNGLEHLKEHGIIHRDLCLENLLLVHCTLQAGPGPAPAPAPAPAPAAAAPPCSSAAPPAGGTLSPAAGPASPEGPREKQLPRLIISNFLKAKQKPGGTPNLQQKKSQARLAPEAVSASQYRKFDEFQTGILIYELLHQPNPFEVRAQLRERDYRQEDLPPLPALSLYSPGLQQLAHLLLEADPIKRIRIGEAKRVLQCLLWGPRRELVQQPGTSEEALCGTLHNWIDMKRALMMMKFAEKAVDRRRGVELEDWLCCQYLASAEPGALLQSLKLLQLL
notes: as for B1
stoichiometry N [5]: 2

B7
binding result [3]: binds

B8
stoichiometry N [6]: 2
